Data on 17 molecules can be found in patent US20160257744A1 (Genentech, published 2016).

One experiment concerns the target T1, HER2 ECD.
T1 construct: one of the irrelevant proteins; also called irrelevant protein coated on ELISA wells
In words: ELISA: human IgG1 at 250 nM on protein-coated wells, anti-Fc-HRP. (An ELISA detects its analyte on a solid surface through an enzyme-linked reagent.)

A further experiment deals with T2, BSA (bovine, UniProt P02769).
T2 construct: negative control protein; also called irrelevant protein coated on ELISA wells
T2 sequence (P02769 25-607 limits assumed): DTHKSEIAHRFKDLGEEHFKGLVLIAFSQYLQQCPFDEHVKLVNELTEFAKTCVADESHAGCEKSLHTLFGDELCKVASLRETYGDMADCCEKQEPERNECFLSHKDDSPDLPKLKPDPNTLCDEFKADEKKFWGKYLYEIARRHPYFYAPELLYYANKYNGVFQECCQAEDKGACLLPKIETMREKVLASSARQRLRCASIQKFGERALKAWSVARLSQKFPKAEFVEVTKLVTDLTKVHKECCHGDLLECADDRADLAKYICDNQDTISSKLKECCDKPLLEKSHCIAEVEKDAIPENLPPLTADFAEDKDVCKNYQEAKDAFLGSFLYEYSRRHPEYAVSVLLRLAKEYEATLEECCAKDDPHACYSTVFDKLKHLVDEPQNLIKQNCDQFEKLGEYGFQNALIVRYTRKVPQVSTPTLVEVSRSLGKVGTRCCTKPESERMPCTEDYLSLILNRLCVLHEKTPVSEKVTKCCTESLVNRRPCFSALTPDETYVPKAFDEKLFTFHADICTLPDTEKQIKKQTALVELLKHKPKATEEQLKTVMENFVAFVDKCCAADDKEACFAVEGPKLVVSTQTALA
The experiment is described as above.

Another experiment deals with interleukin 13 (IL13) (UniProt P35225 35-146, limits assumed). The description is as above.
interleukin 13 (IL13), sequence (P35225 35-146 limits assumed): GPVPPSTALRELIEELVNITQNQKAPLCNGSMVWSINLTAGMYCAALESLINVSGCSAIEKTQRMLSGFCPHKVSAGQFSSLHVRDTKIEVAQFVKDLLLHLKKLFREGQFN
For experiment [1], the target named is T3, interleukin 5 (IL5) (human, UniProt P05113 20-134).
T3 construct: also called human IL5 (R&D Systems)
T3 sequence (looked up): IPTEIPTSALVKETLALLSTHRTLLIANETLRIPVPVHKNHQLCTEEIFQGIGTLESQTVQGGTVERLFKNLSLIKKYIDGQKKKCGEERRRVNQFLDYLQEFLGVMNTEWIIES
In words: SPR, Fab over immobilized IL5.

In the next experiment the target is T4, interleukin 4 (IL4) (UniProt P05112 25-153).
T4 sequence (looked up): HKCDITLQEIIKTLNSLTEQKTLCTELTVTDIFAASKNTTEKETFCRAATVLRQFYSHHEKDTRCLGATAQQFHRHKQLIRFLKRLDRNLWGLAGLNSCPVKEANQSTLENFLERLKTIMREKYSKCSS
Kind of experiment: SPR (Biacore), Fab over CM5 chip with immobilized IL4, 25 °C. (Surface plasmon resonance follows binding to a sensor surface in real time, without labels.)

The target in experiment [2] is T3, interleukin 5 (IL5). In words: SPR (Biacore), Fab over CM5 chip with immobilized human IL5, 25 °C.
In experiment [3] the target is T3, interleukin 5 (IL5). Kind of experiment: phage competition ELISA (phage IC50), soluble IL5 against IL5-coated wells. On the procedure: Fab displaying phage was first incubated with serial dilutions of the respective antigens in solution for 2 h, unbound phage was then briefly captured by antigen coated ELISA wells and detected with anti-M13 HRP conjugate. The concentration of antigen inhibiting 50% of phage binding to antigen coated well is calculated as IC₅₀. NB denotes no detectable binding of phage clone directly to the antigens coated wells.
The relative affinity of each clone was assessed by phage IC₅₀ as above.

B1: B1 as human IgG1 (antibody, V domains shown)
VH: EVQLVQSGAEVKKPGASVKVSCKASGYTFTDYLMHWVRQAPGQGLEWIAVIVSITGRTYYADDFKGRVTITRDTSTSTAYLELSSLRSEDTAVYYCARGGIFYGMDYWGQGTLVTVSS
VL: DIQMTQSPSSLSASVGDRVTITCKASQSVINDAAWYQQKPGKAPKLLIYYTSHRYTGVPSRFSGSGSGTDFTLTISSLQEDFATYYCQQDYTPFPLTFGQGTKVEIKR
notes: also called IL4/IL5 dual specific antibody B1
On to B1, for which the binding result in the experiment with HER2 ECD, in the experiment with BSA and with interleukin 13 (IL13) was “no binding (tested: 250 nM)” throughout.

B2: 1C36, affinity-matured variant of E7, purified as Fab (Fab, V domains shown)
VH: EVQLVQSGAEVKKPGASVKVSCKASGYTFTDYFIHWVRQAPGQGLEWIGGIVYDATGFTTYAEEFKGRVTITRDTSTSTAYLELSSLRSEDTAVYYCARGGIFYGMDYWGQGTLVTVSS
VL: DIQMTQSPSSLSASVGDRVTITCKASQSVINDAAWYQQKPGKAPKLLIYYTSHRYTGVPSRFSGSGSGTDFTLTISSLQEDFATYYCQQDYTHPWTFGQGTKVEIKR
notes: Purified Fab for SPR
Usually Kd stands for a measure of binding affinity in units of concentration. Read a high Kd as a looser complex. One may read the koff as the rate constant with which the complex falls apart. Higher therefore signals fast dissociation. A word on the kon: it is the second-order rate constant of association. High values mean fast association, low ones slow association. On to B2, for which, in the experiment with interleukin 5 (IL5) [1], the affinity, expressed as Kd, was 24.1 nM and the “fold improvement of affinity toward IL5 against E7” value was determined as 37 fold. In addition, in the experiment with interleukin 4 (IL4), the Kd was 3.5 nM, the koff turned out to be 0.00197 s⁻¹ and the kon is 557000 M⁻¹ s⁻¹. Also, in the experiment with interleukin 5 (IL5) [2], the off-rate constant (koff) worked out at 0.000221 s⁻¹ and the kon worked out at 9180 M⁻¹ s⁻¹.

B3: 2B.28 (Fab, V domains shown)
VH: EVQLVQSGAEVKKPGASVKVSCKASGYTFTDYFIHWVRQAPGQGLEWIAGIVYDATGFTTYADNFKGRVTITRDMSTSTVYLELSSLRSEDTAVYYCARGGIFYGMDYWGQGTLVTVSS
VL: DIQMTQSPSSLSASVGDRVTITCKASQSVINDAAWYQQKPGKAPKLLIYYTSHRYTGVPSRFSGSGSGTDFTLTISSLQEDFATYYCQQDYTSPWTFGQGTKVEIKR
As usually defined, the IC50 is the point on the concentration scale where inhibition reaches its midpoint. Read a low IC50 as higher potency. As for B3, the IC50 with interleukin 5 (IL5) [3] is 1.1 nM.

B4: 2B.48 (Fab, V domains shown)
VH: EVQLVQSGAEVKKPGASVKVSCKASGYTFTDYFIHWVRQAPGQGLEWIAGIVYDATGFTTYADAFKGRVTITRDTSTSTVYLELSSLRSEDTAVYYCARGGIFYGMDYWGQGTLVTVSS
VL: DIQMTQSPSSLSASVGDRVTITCKASQSVINDAAWYQQKPGKAPKLLIYYTSHRYTGVPSRFSGSGSGTDFTLTISSLQEDFATYYCQQDYTSPWTFGQGTKVEIKR
B4 gave an IC50 with interleukin 5 (IL5) [3] of 9.2 nM. This IC50 is about 8.4-fold higher than that of the molecule before.

B5: 1C.3 (Fab, V domains shown)
VH: EVQLVQSGAEVKKPGASVKVSCKASGYTFTDYFIHWVRQAPGQGLEWIGGIVYDATGFTTYAVEFKGRVTITRDTSTSTAYLELSSLRSEDTAVYYCARGGIFYGMDYWGQGTLVTVSS
VL: DIQMTQSPSSLSASVGDRVTITCKASQSVINDAAWYQQKPGKAPKLLIYYTSHRYTGVPSRFSGSGSGTDFTLTISSLQEDFATYYCQQDYTHPWTFGQGTKVEIKR
Consider B5, for which, in the experiment with interleukin 5 (IL5) [3], the IC50 is roughly 1000 nM.

B6: 1C.42 (Fab, V domains shown)
VH: EVQLVQSGAEVKKPGASVKVSCKASGYTFTDYFIHWVRQAPGQGLEWIGGIVYDATGFTTYADSFKGRVTITRDTSTSTAYLELSSLRSEDTAVYYCARGGIFYGMDYWGQGTLVTVSS
VL: DIQMTQSPSSLSASVGDRVTITCKASQSVINDAAWYQQKPGKAPKLLIYYTSHRYTGVPSRFSGSGSGTDFTLTISSLQEDFATYYCQQDYTHPWTFGQGTKVEIKR
For B6, in the experiment with interleukin 5 (IL5) [3], the IC50 was found to be 8.5 nM.

B7: 2C.75 (Fab, V domains shown)
VH: EVQLVQSGAEVKKPGASVKVSCKASGYTFTDYFIHWVRQAPGQGLEWIAGIVYDATGFTTYADFFKGRVTITRDTSTSTVYLELSSLRSEDTAVYYCARGGIFYGMDYWGQGTLVTVSS
VL: DIQMTQSPSSLSASVGDRVTITCKASQSVINDAAWYQQKPGKAPKLLIYYTSHRYTGVPSRFSGSGSGTDFTLTISSLQEDFATYYCQQDYTSPWTFGQGTKVEIKR
In the experiment with interleukin 5 (IL5) [3], B7 displayed a half-maximal inhibitory concentration (IC50) of 0.6 nM.

B8: E7 as human IgG1 (antibody, V domains shown)
VH: EVQLVQSGAEVKKPGASVKVSCKASGYTFTDYFIHWVRQAPGQGLEWIAGIVYDATGFTTYADDFKGRVTITRDTSTSTAYLELSSLRSEDTAVYYCARGGIFYGMDYWGQGTLVTVSS
VL: DIQMTQSPSSLSASVGDRVTITCKASQSVINDAAWYQQKPGKAPKLLIYYTSHRYTGVPSRFSGSGSGTDFTLTISSLQEDFATYYCQQDYTSPWTFGQGTKVEIKR
notes: also called IL4/IL5 dual specific antibody E7
For the molecule B8, the binding result with HER2 ECD, with BSA and with interleukin 13 (IL13) was “no binding (tested: 250 nM)” each time.

B9: 1C.11 (Fab, V domains shown)
VH: EVQLVQSGAEVKKPGASVKVSCKASGYTFTDYFIHWVRQAPGQGLEWIGGIVYDATGFTIYAENFKGRVTITRDTSTSTAYLELSSLRSEDTAVYYCARGGIFYGMDYWGQGTLVTVSS
VL: DIQMTQSPSSLSASVGDRVTITCKASQSVINDAAWYQQKPGKAPKLLIYYTSHRYTGVPSRFSGSGSGTDFTLTISSLQEDFATYYCQQDYISPWTFGQGTKVEIKR
With B9, the IC50 in the experiment with interleukin 5 (IL5) [3] is roughly 1000 nM.

B10: 1C.27 (Fab, V domains shown)
VH: EVQLVQSGAEVKKPGASVKVSCKASGYTFTDYFIHWVRQAPGQGLEWIGGIVYDATGFTIYADDFKGRVTITRDTSTSTAYLELSSLRSEDTAVYYCARGGIFYGMDYWGQGTLVTVSS
VL: DIQMTQSPSSLSASVGDRVTITCKASQSVINDAAWYQQKPGKAPKLLIYYTSHRYTGVPSRFSGSGSGTDFTLTISSLQEDFATYYCQQDYTHPWTFGQGTKVEIKR
For the molecule B10, in the experiment with interleukin 5 (IL5) [3], the IC50 worked out at 18.2 nM.

B11: 1C.94 (Fab, V domains shown)
VH: EVQLVQSGAEVKKPGASVKVSCKASGYTFTDYFIHWVRQAPGQGLEWIGGIVYDATGFTAYADDFKGRVTITRDTSTSTAYLELSSLRSEDTAVYYCARGGIFYGMDYWGQGTLVTVSS
VL: DIQMTQSPSSLSASVGDRVTITCKASQSVINDAAWYQQKPGKAPKLLIYYTSHRYTGVPSRFSGSGSGTDFTLTISSLQEDFATYYCQQDYTSPWTFGQGTKVEIKR
For the molecule B11, the IC50 with interleukin 5 (IL5) [3] was roughly 1000 nM.

B12: 1C.93 (Fab, V domains shown)
VH: EVQLVQSGAEVKKPGASVKVSCKASGYTFTDYFIHWVRQAPGQGLEWIGGIVYDATGFTVYADDFKGRVTITRDTSTSTAYLELSSLRSEDTAVYYCARGGIFYGMDYWGQGTLVTVSS
VL: DIQMTQSPSSLSASVGDRVTITCKASQSVINDAAWYQQKPGKAPKLLIYYTSHRYTGVPSRFSGSGSGTDFTLTISSLQEDFATYYCQQDYTHPWTFGQGTKVEIKR
In the experiment with interleukin 5 (IL5) [3], B12 displayed an IC50 of roughly 1000 nM.

B13: 1C.24 (Fab, V domains shown)
VH: EVQLVQSGAEVKKPGASVKVSCKASGYTFTDYFIHWVRQAPGQGLEWIAGIVYDATGFTTYADSFKGRVTITRDTSTSTAYLELSSLRSEDTAVYYCARGGIFYGMDYWGQGTLVTVSS
VL: DIQMTQSPSSLSASVGDRVTITCKASQSVINDAAWYQQKPGKAPKLLIYYTSHRYTGVPSRFSGSGSGTDFTLTISSLQEDFATYYCQQDYLHPWTFGQGTKVEIKR
As for B13, in the experiment with interleukin 5 (IL5) [3], the IC50 is roughly 1000 nM.

B14: 2B.6 (Fab, V domains shown)
VH: EVQLVQSGAEVKKPGASVKVSCKASGYTFTDYFIHWVRQAPGQGLEWIAGIVYDATGFTTYADLFKGRVTITIDFSTSTAYLELSSLRSEDTAVYYCARGGIFYGMDYWGQGTLVTVSS
VL: DIQMTQSPSSLSASVGDRVTITCKASQSVINDAAWYQQKPGKAPKLLIYYTSHRYTGVPSRFSGSGSGTDFTLTISSLQEDFATYYCQQDYTSPWTFGQGTKVEIKR
B14 showed an IC50 with interleukin 5 (IL5) [3] of roughly 1000 nM.

B15: 1C.91 (Fab, V domains shown)
VH: EVQLVQSGAEVKKPGASVKVSCKASGYTFTDYFIHWVRQAPGQGLEWIGGIVYDATGFTTYAEDFKGRVTITRDTSTSTAYLELSSLRSEDTAVYYCARGGIFYGMDYWGQGTLVTVSS
VL: DIQMTQSPSSLSASVGDRVTITCKASQSVINDAAWYQQKPGKAPKLLIYYTSHRYTGVPSRFSGSGSGTDFTLTISSLQEDFATYYCQQDYTSPWTFGQGTKVEIKR
B15 displayed an IC50 with interleukin 5 (IL5) [3] of roughly 1000 nM.

B16: 2B.64 (Fab, V domains shown)
VH: EVQLVQSGAEVKKPGASVKVSCKASGYTFTDYFIHWVRQAPGQGLEWIAGIVYDATGFTTYADSFKGRFTITRDTSTSTVYLELSSLRSEDTAVYYCARGGIFYGMDYWGQGTLVTVSS
VL: DIQMTQSPSSLSASVGDRVTITCKASQSVINDAAWYQQKPGKAPKLLIYYTSHRYTGVPSRFSGSGSGTDFTLTISSLQEDFATYYCQQDYTSPWTFGQGTKVEIKR
With B16, the 50% inhibitory concentration (IC50) with interleukin 5 (IL5) [3] is roughly 1000 nM.

B17: 2B.35 (Fab, V domains shown)
VH: EVQLVQSGAEVKKPGASVKVSCKASGYTFTDYFIHWVRQAPGQGLEWIAGIVYDATGFTTYADTFKGRVTITRDPSTSTVYLELSSLRSEDTAVYYCARGGIFYGMDYWGQGTLVTVSS
VL: DIQMTQSPSSLSASVGDRVTITCKASQSVINDAAWYQQKPGKAPKLLIYYTSHRYTGVPSRFSGSGSGTDFTLTISSLQEDFATYYCQQDYTSPWTFGQGTKVEIKR
For the molecule B17, the IC50 with interleukin 5 (IL5) [3] came out at 1.5 nM. This counts as single-digit nanomolar.
